This is an account of results in patent EP1275713A1.

In this test the target is human TLR4 (human) (UniProt O00206). Briefly: BIACORE 3000: TLR4-COS cells (1.7 × 10^5 cells/mL) premixed with 33 µg/mL sCD14(1-307)S286C for 20 minutes, injected over immobilized sCD14(1-356)/LPS. A general note: In SPR one partner is held on a chip, and binding of the other changes the refractive index at the surface.
Sequence of UniProt O00206 (O00206 24-839): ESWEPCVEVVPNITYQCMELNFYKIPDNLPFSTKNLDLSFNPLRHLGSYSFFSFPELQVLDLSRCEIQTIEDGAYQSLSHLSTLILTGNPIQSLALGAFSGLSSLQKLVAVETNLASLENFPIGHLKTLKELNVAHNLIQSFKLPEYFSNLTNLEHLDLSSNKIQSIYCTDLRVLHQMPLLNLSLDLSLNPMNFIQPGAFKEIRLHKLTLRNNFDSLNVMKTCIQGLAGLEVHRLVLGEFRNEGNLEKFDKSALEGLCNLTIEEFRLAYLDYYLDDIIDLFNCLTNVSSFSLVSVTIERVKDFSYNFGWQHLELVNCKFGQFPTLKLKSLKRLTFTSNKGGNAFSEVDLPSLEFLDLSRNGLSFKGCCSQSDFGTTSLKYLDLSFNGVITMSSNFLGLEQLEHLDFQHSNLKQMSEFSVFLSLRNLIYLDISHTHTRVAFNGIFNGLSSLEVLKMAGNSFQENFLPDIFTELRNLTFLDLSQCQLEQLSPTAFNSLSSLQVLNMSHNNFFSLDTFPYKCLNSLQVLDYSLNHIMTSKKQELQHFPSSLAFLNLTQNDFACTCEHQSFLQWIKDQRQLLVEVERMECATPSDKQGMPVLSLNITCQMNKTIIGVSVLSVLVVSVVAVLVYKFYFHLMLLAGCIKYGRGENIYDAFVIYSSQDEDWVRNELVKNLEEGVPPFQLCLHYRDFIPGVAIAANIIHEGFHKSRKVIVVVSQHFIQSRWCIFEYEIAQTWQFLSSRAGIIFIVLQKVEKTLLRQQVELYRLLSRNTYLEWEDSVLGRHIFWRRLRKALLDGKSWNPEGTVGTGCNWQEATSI

B1: sCD14(1-307)S286C (receptor)
chain: TTPEPCELDDEDFRCVCNFSEPQPDWSEAFQCVSAVEVEIHAGGLNLEPFLKRVDADADPRQYADTVKALRVRRLTVGAAQVPAQLLVGALRVLAYSRLKELTLEDLKITGTMPPLPLEATGLALSSLRLRNVSWATGRSWLAELQQWLKPGLKVLSIAQAHSPAFSCEQVRAFPALTSLDLSDNPGLGERGLMAALCPHKFPAIQNLALRNTGMETPTGVCAALAAAGVQPHSLDLSHNSLRATVNPSAPRCMWSSALNSLNLSFAGLEQVPKGLPAKLRVLDLCCNRLNRAPQPDELPEVDNLTL
B1: the suppression of binding is 100%.
